This passage reports response results from publication PMC10772735, “Characterization of erythroferrone oligomerization and its impact on BMP antagonism” (The Journal of Biological Chemistry, 2023).

First the molecules themselves.
B1: N-terminally flag-tagged hERFE (residues 44–354), WT erythroferrone [human] / BMP6 [not stated] (parent)
chain 1: PPPGNELPRGPGESRAGPAARPPEPTAERAHSVDPRDAWMLFVRQSDKGVNGKKRSRGKAKKLKFGLPGPPGPPGPQGPPGPIIPPEALLKEFQLLLKGAVRQRERAEPEPCTCGPAGPVAASLAPVSATAGEDDDDVVGDVLALLAAPLAPGPRAPRVEAAFLCRLRRDALVERRALHELGVYYLPDAEGAFRRGPGLNLTSGQYRAPVAGFYALAATLHVALGEPPRRGPPRPRDHLRLLICIQSRCQRNASLEAIMGLESSSELFTISVNGVLYLQMGQWTSVFLDNASGCSLTVRSGSHFSAVLLGV
chain 2: SASSRRRQQSRNRSTQSQDVARVSSASDYNSSELKTACRKHELYVSFQDLGWQDWIIAPKGYAANYCDGECSFPLNAHMNATNHAIVQTLVHLMNPEYVPKPCCAPTKLNAISVLYFDDNSNVILKKYRNMVVRACGCH

Variants of B1 are the subject of the test. In words: SPR competition (BMP6 + ERFE over Alk3-Fc captured on protein A chip). Particulars: curve maximum near the ~300 s dotted line, RU is residual BMP6 binding to Alk3-Fc (lower RU = more competition by ERFE), read off a plot.

As to chain 1 W39A, the response is, setting by setting: (with BMP6, 10 nM BMP6 + 80 nM W82A ERFE) 12 RU; (with BMP6, 10 nM BMP6 + 160 nM W82A ERFE) 10 RU.
For chain 1 F42A, the response by setting is: (with BMP6, 10 nM BMP6 + 80 nM F85A ERFE) 12 RU; (with BMP6, 10 nM BMP6 + 160 nM F85A ERFE) 11 RU.
